Data as given in a protein production outcome set (Wang et al. 2014).

Experiment: label from the status in PepcDB records

Sequence	protein production
MQLPTQQVAVLDAASTDDPQRIEALAADTDYPPETIAGAALALEAEGLVAVTETTTTTVSLTDEGHAYATDGLPEVRLYRAALDAGADDAPVEMGSVIGAAGLDGPQVDIALSNYARKGYGTIDSGALAADPDADPENDPEADALATLTDGDSVDDDAVVDQLASRDLVTVSERTVRSVTLTEAGVTELMAGVEATDEVGELTPELLASGEWADVEFADYNVAADAADHTPGKTHVLRQAAERVTDVLVGMGFQEMAGPHVDADFYINDCLFMPQDHPARNHWDRFALSNPARIDELPDALVERVERAHREGAGDDGDGYHSPWDEDFARALALRGHTTSLTARHLAGLADADVEAPARYFSVEKAYRNDTLDATHLLEFFQIEGWVLADDLSVRDLMGTFREFYSQFGIHDLQFKPTYNPYTEPSFELFGRHPETGELIEIGNSGIFRPEMLDPLDVDGDVMAWGLALERLLMLMTGFEDIRDVHGTLCDVGFLRNAEVVY	failed
MQLVVARIGRAHGIKGEVTVEVRTDEPELRLGPGAVLATDPASVGPLTIETGRVHSGRLLLRFEGVRDRNGAEALRNTLLIAEVDPDEVPEDPDEYYDHQLMDLDVVTKDGTEVGRITEISHLPSQDLFVVERSDGSEVYIPFVEEIVVEIDLEEQRAVIDPPPGLIDDRAEVDSSDTEAATEADALEHHHHHH	not failed
MQMDSAQNQFNKRARLFEDPELKDAKVIYPSNPESTEPVNKGYGGSTAIQSFFKESKAEETPKVLKKRGRKKKNPNPEEVNSSTPGGDDSENRSKFYESASARKRTVTAEERERAVNAAKTFEPTNPYFRVVLRPSYLYRGCIMYLPSGFAEKYLSGISGFIKLQLGEKQWPVRCLYKAGRAKFSQGWYEFTLENNIGEGDVCVFELLRTRDFVLEVTAFRVNEYV	failed
MQMSMLTRLHYFNCVVETGSISKASRIFDVQPSSISRQLTALEKELGVLLLKRTSRNIGLTEAGQTYYKYSQKIVSDLDEARCAVNDLQQKPKGNLKVSMAVGFAECCILPMIPTFTKLYPEINLELEMTGRVVDLVEENVDVAIRTGRLRDSNLIALKLTSNNFLLCASPQYITEHGTPKSPFNLTDFECIRYEYAGWRDWYLMNDKPTKLTIKSGLTVRSINGQKQLILNHAGLALMPKWSVINELDNGTLVQVLEQNIFSPYESMSSTYAIYLKRELISPKVRVFIDFIKDHIDYNS	failed
MQNIRVVLARPNHPGNIGSAARAMKTMGLSRLYLVEPKVFPSEEANALASGAVDLLENATVVGSLREALSDVTVACALTSRRRELTTPLSTPRQTTPELIARARDGEQVALVFGNETFGLSIEEVEQCNRLVTIPGNPDYFSLNLAMAVQVMTYELFSHTGVDVEYLRAEGEAATQSEVDGMCGHLEQAMDEIGYFQRRNSERLMRRMRTMFHRAGMLREEIDILRGFYKQVQRTASGRSGDAD	failed
MQNNSYGYAVSVRVGGKEHRHWERYDIDSDFLIPADSFDFVIGRLGPEAAIPDLSGESCEVVIDGQIVMTGIIGSQRHGKSKGSRELSLSGRDLAGFLVDCSAPQLNVKGMTVLDAAKKLAAPWPQIKAVVLKAENNPALGKIDIEPGETVWQALTHIANSVGLHPWLEPDGTLVVGGADYSSPPVATLCWSRTDSRCNIERMDIEWDTDNRFSEVTFLAQSHGRSGDSAKHDLKWVYKDPTMTLHRPKTVVVSDADNLAALQKQAKKQLADWRLEGFTLTITVGGHKTRDGVLWQPGLRVHVIDDEHGIDAVFFLMGRRFMLSRMDGTQTELRLKEDGIWTPDAYPK	not failed
MQNYGRLFELVPGKLELFKKLQLLTEQFKNYCLLSRNFEAANTVFGQIEEIYSGILKKEPGHILVSAHLLFLYETSADLYTKLGKIEKAEESYLQALDFLSKKQRASPGNTTYVRQQGKVYRMLGRAFYEAGDSGKAAQYAGKALEILRELAGKNPEDLHYQYEISDDFTGLGKLFEDIGDIERAKECHMQEINIYRNIHERDPEDEVSEANIAATLDRIGHLYAGKGETETAKQYYEQGLEAYEKLSESYPEDIDHEVGIANTLGYIGKQYSDPEPETALKYYKKALGILEDVVQTFPDVPVYKEDLIQTLGYLESLASGQKQYENAILYRERITELSRQLASENPENFDYKKELAISFKHMGLLYEKAEKHELAKQQYSKSADVFRQVLQDENEKDLMKGLLALDLQKQATILIHEKNYGLAKEYLALLRDYYEALYEKDPEKPENWKAVCEIRTLCGILHKSMGNYDAAIQIYKSVFSILHKHPVSDPDNPDYQSIIGVLYTQLGIAYHLADEYDKSKEAFEKSIPINTRLLDEETENFLHMGDMAVALAEYSKLLTSMGMKKEAEEYAAKADEIKEKIMKKFRFDEYTVEDGDKKAL	failed
MQNYKSGELALLDVPVPGCKPGGVLVRTAYSLISTGTELMKVSEAGMSMLGKARSRPDQVAKVVQSVATNGVPATYRKVMGKLDSYTPLGYSLCGVVEQVGEGIDDVKAGDLVACAGNEHALHAELNWVPRNLYAPVPDGLAARDAAFGTVGSIALQGVRQGESRLGETALVIGLGLIGQLVVQLLVASGVRVVGADPDAERCELAERLGAAACGDPASPAVESAVVELTDGHGVDQVYLAAGGGSNQPVELAARLCRDRGRVVDIGKCRLDLPWNAYYEKELDVRFSRSYGPGRYDPEYELEGRDYPIGYVRWTERRNLACFLDLVARGRVDVAPLITRTADFDDAVETYRSLQDGALKAVAVLFRYPGQPDAEAPAGAPAVTVPGVRRGAGAAAPARAARTPVRLAFVGAGNYATSMLLPHLARREGVELSTVVTTTALSAANAQRKFGFGEATTDLDAVLGDASVDAVFVVTRHSSHAELTRKALLAGKAVFVEKPLALTGEELTGVLAAVEESGNDRVQVGFNRRFAPLLQEARKRFGARTGPASLRYLVNAGRLDHGSWYLQQGTEGSRFAGEGGHFVDTASWLLGADPVSVYALAPSSNEDLQVVLGYPDGSTATLSYVTTGAAGFPKETLDLVADGKVLQLDDFVRSSVYDGRKRWVSSRLPKARDKGQSAELAAFVRAVRTGGPMPVPLESLVATTAATLAVRTALAAGAPVGLAEAR	failed
MQPIDRAQAQQRANDILVFQRELQRLDQEQAFRLEPAQARQLADYHLALLDSYRDRFDIDHDLRSQQLSLGMRVASFFGALAFAASVFLLFYRFWGLFPTVAQVAILIGSAFAAFFATLWVQAKDASGYFSKLAAMVAFACFVLDLTMLGQIFNVTPSDLALVPWALYALLLAYLCNARLLLAAAILCVMGFIAARVGTWGGGYWLSVGERPENFFPAAALIFAVPLCFDQRNFSGFAVIYRVFALLGLFLPMLVLANWGSGSYLALPSALIEGLYQVAGFVAAALVIWLGARRNWADVSNTGITFFVIFLYTKFFDWWWEAMPKYLFFLVLGLSALLILLVLRRLRTPLGIAARTDA	failed
MQPLVSTVLVPSQGIPLCCNEICLKSLQKEVAMPLKDLLIALVVIVAWGVNFVVIKVGLDGLPPMLLGALRFLLVAFPAILLVRRPKLPWRWLIAYGATISLGQFAFLFQAMYSGMPPGLASLILQSQAFFTLGFAALFLGERLRLASVLGLLVAAGGLALIGSEDGGHVPMLALVLTLCGGAMWGLGNIITRRFGSVDLVALVIWGGLIPPLPFLALSWWLEGPERIGHALANISWSSVLALAYLAFVATMLGYSLWSKLLSRHPAGKVAPFSLLVPVIGLSSSALLLGERLTATQGWGALLVMAGLLVNVFGARIGQRLRAANA	failed
MQPLVSVLICAYNVEKYFAQSLAAVVNQTWRNLDILIVDDGSTDGTPAIARRFQEQDGRIRIISNPRNLGFIASLNIGLDELAKSGGGGEYIARTDADDIASPGWIEKIVGEMEKDRSIIAMGAWLEVLSEENNKSVLAAIARNGAIWDKPTRHEDIVAVFPFGNPIHNNTMIMRRSVIDGGLRFDPAYIHAEDYKFWYEAGKLGRLAYYPEALVKYRFHQDQTSSKYNLQQRRTAWKIKEEIRAGYWKAAGIAVGADCLNYGLLKSTAYALYEKALSGQDIGCLRLFLYEYFLSLEKYSLTDLLDFLTDRVMRKLFAAPQYRKILKKMLRPWKYRSYLEHHHHHH	failed
MQPYEKYLKLNSQKLRADQTDTERKLWQRINRDQLLGFRFNRQKPLLSYIVDFYCAKTKLIIELDGSQHYKPDYQEKDALRDAELNSLGFTVMRFSNDEVMREIEAVVEQIYLFLENVRTD	failed
MQQFHIRRLREEDIPLLKGLLVELDTSHYEAEPNFYRSPEEMAQLREERGVFDKYFDDSMIAFIACSHRQVVGFISGTVRDIDSMVSVAKRVGFVNELVVSESHRNLGIGLSLMDKIESDLCNQGIEEIGLTVASFNHEGEDFYHKMGYRVMTKMMSKRVKDLEHHHHHH	not failed
